For test [1], the target named is RPA32C C-terminal domain (Homo sapiens) (UniProt P15927). Description: ITC. The following applies: cited from earlier work.
In test [2] the target is T1, RPA32 construct spanning the region 210-270 (UniProt P15927 210-270, RED-tris-NTA dye on the His tag).
T1 construct: RPA32, residues 210-270 (C-terminal winged helix domain); Cloned by LIC; also called RPA32(210-270); C-terminal winged helix domain of RPA32; source: E. coli SoluBL21, purified (Ni-NTA, anion exchange, SEC)
Description: MST; RPA32C labelled with RED-tris-NTA (His-tag labelling kit), 100 nM mixed 1:1 with 2-fold serial dilutions of the ligand; 50 mM HEPES pH 8.0, 400 mM NaCl, 10% glycerol, 0.05% Tween-20; incubated 30 min at 37°C, measured at 25°C; three replicates. The following applies: both partners purified.

The Kd is the constant that tells how readily two partners part at equilibrium.

RPA32C C-terminal domain (Homo sapiens), sequence (P15927 202-270): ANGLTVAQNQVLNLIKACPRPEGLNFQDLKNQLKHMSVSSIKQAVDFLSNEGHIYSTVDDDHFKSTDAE
T1 sequence (P15927 210-270): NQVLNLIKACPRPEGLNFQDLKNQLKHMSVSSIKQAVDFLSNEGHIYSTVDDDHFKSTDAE

Consider “SMARCAL1 peptide 5-30 (from UniProt Q9NZC9)”, for which the Kd in test [1] is 2.9 µM.

B1: SMARCAL1 peptide (residues 5-30) (peptide)
peptide: LTEEQRKKIEENRQKALARRAEKLLA
notes: SMARCAL1, residues 5-30; also called 26-amino acid SMARCAL1 peptide; source: synthetic peptide, bought: LifeTein, LLC
As for B1, binding in test [2] was put at a Kd of 470 µM.
